In patent publication US20200165312A1, “COSMETIC COMPOSITION FOR IMPROVING SKIN CONDITIONS COMPRISING FUSION PROTEIN INCLUDING SKIN PENETRATION ENHANCING PEPTIDE” (LG HOUSEHOLD & HEALTH CARE LTD., priority 2017, published 2020):

Assays:
[1] = Skin penetrability of growth factor fusion proteins (Franz glass cell, ELISA); type: in vitro ADME, porcine; details: for Penetrated amount (%): 2 μg, 16 hours; for skin penetrability compared with the unfused protein: summary of Tables 7, 12, 16, 20, 24
Procedure: (§1) Specifically, porcine skin (thickness: 0.7 mm, Medikinetics) was placed between upper and lower ends of Franz glass cell (standard diameter: 9 mm, Receiver 5 mL, Permegear), and TBS (50 mM Tris pH 7.5, 150 mM NaCl) including 1% BSA and 0.01% Tween 20 was prepared. Then, 500 μL of the TBS was applied to the upper end of the glass cell (Donor chamber), and 5 mL of the TBS was applied to the lower end of the glass cell, (Receiver chamber). Subsequently, 2 μg of PDGFa or T-PDGFa was applied to the upper end of the glass cell, followed by reaction for 16 hours. Then, a concentration of PDGFa or T-PDGFa was quantitatively analyzed using the ELISA kit (R&D Systems), and a relative amount of T-PDGFa to PDGFa was calculated as a penetrated amount (Table 7).
Specifically, porcine skin (thickness: 0.7 mm, Medikinetics) was placed between upper and lower ends of Franz glass cell (standard diameter: 9 mm, Receiver 5 mL, Permegear), and TBS (50 mM Tris pH 7.5, 150 mM NaCl) including 1% BSA and 0.01% Tween 20 was prepared. Then, 500 μL of the TBS was applied to the upper end of the glass cell (Donor chamber), and 5 mL of the TBS was applied to the lower end of the glass cell, (Receiver chamber).
as §1, with “IGF-1” for “PDGFa”, “T-IGF-1” for “T-PDGFa”, “16).” for “7).”
as §1, with “KGF” for “PDGFa”, “T-KGF” for “T-PDGFa”, “20).” for “7).”
as §1, with “Tβ4” for “PDGFa”, “T-Tβ4” for “T-PDGFa”, “24).” for “7).”

[2] = Skin retentivity of growth factor fusion proteins (porcine skin disrupted, ELISA); type: in vitro ADME; details: for Remaining amount (%): skin after 16 hours penetration test; for skin retentivity higher than the unfused protein: summary of Tables 8, 13, 17, 21, 25
Procedure: Specifically, the porcine skin remained after the experiment of Example 3-2-4 was recovered, frozen in liquid nitrogen, and disrupted. An amount of PDGFa or T-PDGFa contained therein was quantitatively analyzed using the ELISA kit (R&D Systems). In addition, a relative amount of T-PDGFa to PDGFa was calculated as a remaining amount (Table 8).
Specifically, the porcine skin remained after the experiment of Example 3-3-4 was recovered, frozen in liquid nitrogen, and disrupted. An amount of VEGF or T-VEGF contained therein was quantitatively analyzed using the ELISA kit (R&D Systems).
Specifically, the porcine skin remained after the experiment of Example 3-4-4 was recovered, frozen in liquid nitrogen, and disrupted. An amount of IGF-1 or T-IGF-1 contained therein was quantitatively analyzed using the ELISA kit (R&D Systems). In addition, a relative amount of T-IGF-1 to IGF-1 was calculated as a remaining amount (Table 17).
Specifically, the porcine skin remained after the experiment of Example 3-5-3 was recovered, frozen in liquid nitrogen, and disrupted. An amount of KGF or T-KGF contained therein was quantitatively analyzed using the ELISA kit (R&D Systems). In addition, a relative amount of T-KGF to KGF was calculated as a remaining amount (Table 21).
Specifically, the porcine skin remained after the experiment of Example 3-6-3 was recovered, frozen in liquid nitrogen, and disrupted. An amount of Tβ4 or T-Tβ4 contained therein was quantitatively analyzed using the ELISA kit (R&D Systems). In addition, a relative amount of T-Tβ4 to Tβ4 was calculated as a remaining amount (Table 25).

Molecule	Penetrated amount (%) ([1]; relative to VEGF)	skin penetrability compared with the unfused protein [1]	Remaining amount (%) ([2]; relative to VEGF)	skin retentivity higher than the unfused protein [2]	Penetrated amount (%) ([1]; relative to KGF)	Remaining amount (%) ([2]; relative to KGF)
T-VEGF: SEQ ID NO: 1 peptide C-terminal linked to N-terminal of VEGF via GG linker (protein, Synthetic Fusion protein of T-VEGF) NGSLNTHLAPILGGAPMAEGGGQNHHEVVKFMDVYQRSYCHPIETLVDIFQEYPDEIEYIFKPSCVPLMRCGGCCNDEGLECVPTEESNITMQIMRIKPHQGQHIGEMSFLQHNKCECRPKKDRARQENPCGPCSERRKHLFVQDPQTCKCSCKNTDSRCKARQLELNERTCRCDKPRR	295 ± 21%	about three times higher	9,800 ± 790%	about 100 times	–	–
T-KGF: SEQ ID NO: 1 peptide C-terminal linked to N-terminal of KGF via GG linker (protein, Synthetic Fusion protein of T-KGF) NGSLNTHLAPILGGCNDMTPEQMATNVNCSSPERHTRSYDYMEGGDIRVRRLFCRTQWYLRIDKRGKVKGTQEMKNNYNIMEIRTVAVGIVAIKGVESEFYLAMNKEGKLYAKKECNEDCNFKELILENHYNTYASAKWTHNGGEMFVALNQKGIPVRGKKTKKEQKTAHFLPMAIT	–	about three times higher	–	about 100 times	310 ± 12%	9,700 ± 850%
KGF: keratinocyte growth factor having an amino acid sequence of SEQ ID NO: 44 (protein, Human KGF) CNDMTPEQMATNVNCSSPERHTRSYDYMEGGDIRVRRLFCRTQWYLRIDKRGKVKGTQEMKNNYNIMEIRTVAVGIVAIKGVESEFYLAMNKEGKLYAKKECNEDCNFKELILENHYNTYASAKWTHNGGEMFVALNQKGIPVRGKKTKKEQKTAHFLPMAIT	–	–	–	–	100 ± 18%	100 ± 17%
